In US9474783B2, “HIP/PAP protein and derivatives thereof for use in treating cancer” (priority 2012, dated 2016):

B1: ALF-5755 (protein, listed as Homo sapiens)
chain: MEEPQRELPSARIRCPKGSKAYGSHCYALFLSPKSWTDADLACQKRPSGNLVSVLSGAEGSFVSSLVKSIGNSYSYVWIGLHDPTQGTEPNGEGWEWSSSDVMNYFAWERNPSTISSPGHCASLSRSTAFLRWKDYNCNVRLPYVCKFTD

Assays:
PANC1 cells = assay: In vitro pancreatic cancer cell line growth (cell density, optical density); assay type: cell-based, Human
Method: (§1) The MCF7 (Human breast adenocarcinoma) and PANC1 (Human pancreatic carcinoma, epithelial-like cell line) cell lines were obtained from LGC-Promochem ATCC.
(§2) Sub-confluent cultures (70-80%) were split using Trypsin/EDTA and collected in serum free culture medium. Cell concentration was determined using Trypan blue staining and a Mallasez counting chamber.
(§3) Briefly, 1,000 cells per well were seeded in 96 well-plates. Cells were maintained in DMEM medium complemented with 1% antibiotics (P/S), and cultured in a humidified atmosphere at 37° C. and 5% CO2.
(§4) Cells were maintained in culture for 1 to 3 days (1 plate for each day of analysis). For control of cell survival/growth and validation of the experiments, equivalent cultures were performed in the presence of Foetal calf serum (5%).
(§5) The effect of increasing concentrations of ALF-5755 ranging from 0 to 2000 ng/ml was investigated over time up to 72 hours. Results for the optimal concentration (2000 ng/mL) only are presented below.
(§6) For each time point (24, 48, and 72 hours), 60 minutes prior to cell proliferation measurement, each plate received 10 μL of cell proliferation reagent per well.
(§7) The absorbance of the samples was measured against a background control using a 96-well plate reader at 450 nm with a reference wavelength of 690 nm.
(§8) Raw data are expressed as optical density.
(§9) Two-way ANOVA were performed to study ALF-5755 concentration incidence on cell growth and cell growth over time for each condition of culture (+/−ALF-5755 and +/−doxorubicin). Post-hoc Bonferroni were applied to reveal effects of ALF-5755 concentration at each time point, if any.

MCF7 cells = assay: In vitro mammary cancer cell line growth (cell density, optical density); assay type: cell-based, Human
Method: as §1, §2, §3, §4, §5, §6, §7, §8, §9

[1] = test system: DHDK12 cells (liver metastases of colorectal cancer); assay: In vivo model of liver metastases of colorectal cancer (tumor area after partial hepatectomy); set-up: species or system BDIX rat; conditions: 0.5 mg/kg single injection; for ratio of tumor liver area to total liver area: 14 days after treatment
Method: DHDK12 cell line was derived from liver metastatic cells developed by BDIX rats after 1,2-Dimethylhydrazine) intoxication (chemically-induced cancer). Therefore, all experiments were performed in BDIX rat, the syngenic corresponding strain.
Cells were expanded in vitro in a medium composed of 50% DMEM and 50% F12 (Invitrogen Gibco, Pailsey, GB) complemented with foetal calf serum (10%) and a combination of antibiotics (1% penicillin/streptomycin). Absence of mycoplasm contamination was controlled.
At day 1 of the experiment, rats were anesthetized with isofluran gas. After laparotomy they received 20 millions of DHDK12 cells.
At day seven after the injection of cancerous cells, when the tumor was already implanted, two types of hepatectomies were performed: either 30% or 70% of the liver was resected.
The control group was composed of animals receiving either the equivalent volume of vehicle or no injection.
Fourteen days after hepatectomy and treatment, animals were sacrificed. Serial sections of complete liver were performed for each animal (millimetric sections, the number of sections depending on the liver size and morphology). The tumor expansion was assessed by quantifying in square pixels (pixel^2) the area of each cancer cells nodule. The complete area of each section was also recorded and a ratio of the nodule/total area was calculated. Analyses were performed with Adobe Photoshop CS3 software.
Depending on the experiment, one-tailed t-test or two-tailed Mann-Whitney tests were performed to quantify the effect of ALF-5755 on nodule expansion. Area of nodules was expressed as a percentage of total liver area.

[2] = test system: PyMT cells (primary mammary carcinoma); assay: In vivo model of primary mammary cancer (tumor weight, survival)
Method: PyMT (Polyoma middle T) cell line was derived from a primary mammary carcinoma induced by PyMT oncogene activation in FBV mice. Therefore, all experiments were performed in FBV mice, the syngenic corresponding strain.
PyMT mice were sacrificed at 12/13 weeks when presenting a large tumoral mass. The tumour was dissected and cells were dissociated mechanically in DMEM/Glutamax medium and then filtrated. Dead cells were eliminated by centrifugation then viable cells were frozen in aliquots. For tumour implantation in FBV mice, appropriate number of aliquots cells was thawn.
At day 1 of the experiment, female mice received 1 million of PyMT cells, within the 8th mammal in the adipose tissue. Cells were injected as a solution in PBS (0.05 ml total pre-warmed at 37° C.).
Alzet pumps were implanted in the back of the mice, at the time of PyMT cell injection (experiment 1) or after tumor implantation, when doxorubicin treatment started (experiment 2). The pumps continuously delivered either 43.2 μg of ALF-5755 or vehicle per day for a period of 28 days.
Animals started to receive doxorubicin at the time when tumor was detected (15 days after PyMT cells injection for both, ALF-5755 and Vehicle groups) by intra-tumor injection. Animals receive during four weeks, a weekly dose of 1 mg/kg that was known to induce tumor cell-death.
At the end of doxorubicin treatment (6 weeks after the beginning of the procedure), animals were sacrificed.
The weight of the tumors was compared between the two groups by mean of non-parametric one tailed Mann whitney test. Survival was compared by mean of one-tailed exact Fischer test.

Molecule | EC50 (PANC1 cells; Homo sapiens, PANC-1, PANC1 cells at 72H) [µM] | reduction of the cell growth (PANC1 cells; doxorubicin 2.5 μM, effective at 48 hours post-plating, maintained at 72 hours) | EC50 (MCF7 cells; Homo sapiens, MCF7 cells at 24H) [µM] | reduction of the growth of MCF7 cancerous cells (MCF7 cells; doxorubicin 75 μM, 24 hours post-plating, maintained at 72 hours) | ratio of tumor liver area to total liver area ([1]; after 30% partial hepatectomy, control ratio 0.14) | decrease of tumor/total liver area ratio versus controls ([1]; after 30% partial hepatectomy, versus non-injected controls, p=0.022) | ratio of tumor liver area to total liver area ([1]; after 70% partial hepatectomy, control ratio 0.29) | decrease of tumor/total liver area ratio versus controls ([1]; after 70% partial hepatectomy, versus vehicle, p=0.0026) | additional decrease of cell density in combination to doxorubicin (PANC1 cells; ALF-5755 2000 ng/mL + doxorubicin 2.5 μM versus doxorubicin alone, 24 hours post-plating) | maximum additional reduction in cell density in combination to doxorubicin (MCF7 cells; ALF-5755 2000 ng/mL + doxorubicin 75 μM versus doxorubicin alone, 72 hours) [%] | influence on the doxorubicin effect on cell density (MCF7 cells; ALF-5755 at any of the tested concentrations (0 to 2000 ng/ml) with doxorubicin 75 μM) | deaths during the experiment ([2]; exp 1, ALF-5755 infusion with doxorubicin, n=3) | tumor weight at day 45 after implantation ([2]; exp 1, infusion 43.2 μg per day for 28 days from implantation, with weekly intra-tumor doxorubicin, control 1.1±0.2 g, P=0.059) [g] | deaths during the course of the experiment ([2]; exp 2, doxorubicin treated animals (1 mg/kg weekly intra-tumor for 4 weeks), same as group without doxorubicin) | deaths during the experiment, in total ([2]; exp 2, groups with and without doxorubicin pooled, n=14, placebo 6 of 14 died, P=0.008) | deaths during the course of the experiment ([2]; exp 2, infusion 43.2 μg per day for 28 days from tumor detection, group without doxorubicin, placebo 3 of 7 died)
COc1cccc2c1C(=O)c1c(O)c3c(c(O)c1C2=O)C[C@@](O)(C(=O)CO)C[C@@H]3O[C@H]1C[C@H](N)[C@H](O)[C@H](C)O1 [doxorubicin, reference compound] | 2.5 | about 50% | 75 | about 50% |  |  |  |  |  |  |  |  |  |  |  | 
B1 |  |  |  |  | 0.05 | about 60% | 0.15 | about 50% | up to 22% | 33 | did not compromise the doxorubicin effect | no death observed | 0.63 ± 0.12 | exact same result | none | no death was observed
